Reference: patent US20220119522A1 (DENALI THERAPEUTICS, published 2022)
Residue numbers refer to the chain shown, from its start. No end group written: not given here.

T1: His-tagged human TREM2 ECD (human, UniProt Q9NZC2 19-172)
T1 construct: Biacore and HDX say only recombinant human TREM2 (ECD); also called recombinant human TREM2; hTREM2
T1 sequence: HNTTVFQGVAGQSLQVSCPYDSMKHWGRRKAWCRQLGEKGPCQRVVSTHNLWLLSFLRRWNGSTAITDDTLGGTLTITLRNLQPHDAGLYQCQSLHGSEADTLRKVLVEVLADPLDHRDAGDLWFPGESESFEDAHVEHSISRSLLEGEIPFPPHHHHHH

T2: human soluble TREM2 (sTREM2) (human, UniProt Q9NZC2 19-157, limits assumed)
T2 construct: Native shed sTREM2; also called sTREM2 in Human CSF; sTREM2 in huTrem2 KI mouse plasma
T2 sequence: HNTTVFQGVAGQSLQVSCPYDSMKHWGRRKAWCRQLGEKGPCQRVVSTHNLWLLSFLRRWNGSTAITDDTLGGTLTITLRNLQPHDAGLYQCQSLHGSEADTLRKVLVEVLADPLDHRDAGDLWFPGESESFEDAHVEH

T3: human TREM2 on the cell surface (human, UniProt Q9NZC2 19-230)
T3 construct: also called surface TREM2; TREM2 expressed in HEK293-H6 cells
T3 sequence: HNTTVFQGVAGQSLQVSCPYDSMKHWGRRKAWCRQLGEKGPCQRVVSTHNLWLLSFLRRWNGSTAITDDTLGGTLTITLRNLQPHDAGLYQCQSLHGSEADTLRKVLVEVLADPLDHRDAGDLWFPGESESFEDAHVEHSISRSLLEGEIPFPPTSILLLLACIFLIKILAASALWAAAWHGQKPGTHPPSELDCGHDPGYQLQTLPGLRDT

T4: human TREM2 full length stalk region peptide (aa 129-172) (human, biotinylated (site not stated))
T4 construct: also called Human TREM2 peptide (aa 129-172); full-length TREM2 stalk peptide
T4 peptide: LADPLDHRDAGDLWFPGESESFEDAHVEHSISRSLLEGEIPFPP

T5: human TREM2 truncated stalk peptide (aa 149-163) (human, also: biotinylated (site not given here))
T5 construct: also called Human TREM2 peptide (aa 149-163); truncated stalk peptide containing the ADAM10/17 cleavage site
T5 peptide: SFEDAHVEHSISRSL

T6: mouse TREM2 full length stalk region peptide (aa 131-169) (mouse, UniProt Q99NH8 131-169, biotinylated (site not stated))
T6 peptide (looked up): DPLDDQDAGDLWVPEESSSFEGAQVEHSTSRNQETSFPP

B1: Reference antibody #3 (antibody, V domains shown)
VH: QVQLVQSGAEVKKPGASVKVSCKASGYAFSSQWMNWVRQAPGQRLEWIGRIYPGGGDTNYAGKFQGRVTITADTSASTAYMELSSLRSEDTAVYYCARLLRNQPGESYAMDYWGQGTLVTVSS
VL: DVVMTQSPDSLAVSLGERATINCRSSQSLVHSNRYTYLHWYQQKPGQSPKLLIYKVSNRFSGVPDRFSGSGSGTDFTLKISRVEAEDVGVYYCSQSTRVPYTFGQGTKLEIK
B2: CL0020188-4 (antibody, V domains shown)
VH: EVQLVESGGGLVQPGGSLRLSCAGSGFTFTDFYMSWVRQAPGKGPEWLSVIRNKANGYTAGYNPSVKGRFTISRDNSKNTLYLQMNSLRAEDTAVYYCARLTYGFDYWGQGTLVTVSS
VL: DIVMTQTPLSLPVTPGEPASISCQSSKSLLHSTGKTYLNWYLQKPGQSPQLLIYWMSTRASGVPDRFSGSGSGTDFTLKISRVEAEDVGVYYCQQFLEYPFTFGQGTKVEIK
notes: Humanized variant of CL0020188 (hVH NG/3 m, hVL TG/graft); also called Clone CL0020188-4
B3: CL0020188-7 (antibody, V domains shown)
VH: B2 VH with G24A, P45L, L48V, G57A
VL: B2 VL
notes: Humanized variant of CL0020188 (hVH NA/graft, hVL TG/graft); also called Clone CL0020188-7
B4: CL0020123 (antibody, V domains shown)
VH: EVQLQQSGAELVRSGASVKLSCTASGFSIEDFYIHWVKQRPEQGLEWIGWIDPENGDSKYAPKFQGKATMTADTSSNTAYLHLSSLTSEDTAVYYCHADHGNYGSTMDYWGQGTSVTVSS
VL: DIQMNQSPSSLSASLGDTVTITCHASQHINVWLSWYQQKPGDHPKLLIYKASNLHTGVPSRFSGSGSGTGFTLTISSLQPEDIATYYCQQGQTYPRTFGGGTKLEIK
notes: also called Clone CL0020123
B5: CL0020123-7 (antibody, V domains shown)
VH: QVQLVQSGAEVKKPGASVKVSCKASGFSIEDFYIHWVRQAPGQGLEWMGWIDPENGESKYAPKFQGRVTITADTSTSTAYMELSSLRSEDTAVYYCHADHGNYGSTMDYWGQGTLVTVSS
VL: B4 VL with N5T, L15V, T18R, D42K, H43A, G70D, I83F, G100Q, L104V
notes: Humanized variant of CL0020123 (hVH NGES/1 m, Vk graft); also called Clone CL0020123-7
B6: CL0020123-5 (antibody, V domains shown)
VH: B5 VH with N55Q, V68A
VL: B4 VL with N5T, L15V, T18R, D42K, H43A, G70D, I83F, G100Q, L104V
notes: Humanized variant of CL0020123 (hVH QGES/2 m, Vk graft); also called Clone CL0020123-5
B7: Reference antibody #1 (antibody, V domains shown)
VH: EVQLVQSGAEVKKPGESLKISCKGSGHSFTNYWIAWVRQMPGKGLEWMGIIYPGDSDTRYSPSFQGQVTISADKSISTAYLQWSSLKASDTAVYFCARQRTFYYDSSGYFDYWGQGTLVTVSS
VL: DIQMTQSPSSVSASVGDRVTITCRASQGISNWLAWYQQKPGKAPKLLIYAASSLQVGVPLRFSGSGSGTDFTLTISSLQPEDFATYYCQQADSFPRNFGQGTKLEIK
B8: Reference antibody #2 (antibody, V domains shown)
VH: B7 VH with H27Y, N31S, V93M, G108D
VL: B7 VL with N31S, V56N, L60S, Y87F, N97T

What was measured:
[1] = target: T1, His-tagged human TREM2 ECD; assay: SPR (Biacore)
Description: (§1) Surface plasmon resonance (Biacore™ 8K instrument) was used to measure anti-TREM2 antibody affinities for human and cynomolgus TREM2 ECD. Anti-TREM2 antibodies were captured using Human Fab Capture Kit (GE Healthcare Life Sciences, Catalog No. 28958325) on a Biacore Series S CM5 sensor chip (GE Healthcare Life Sciences, Catalog No. 29149604). Serial 3-fold dilutions of recombinant human or cynomolgus TREM2 were injected at a flow rate of 30 μL/min. Antibody binding was monitored for 300 seconds, followed by monitoring of antibody dissociation for 600+seconds in HBS-EP+ running buffer (GE Healthcare Life Sciences, Catalog No. BR100669). The binding response was corrected by subtracting the RU value from a blank flow cell. A 1:1 Languir model of simultaneous fitting of kₒₙ and koff was used for kinetics analysis. […]

[2] = target: T7, recombinant cynomolgus TREM2 ECD (cynomolgus); assay: SPR (Biacore)
T7 construct: extracellular domain; also called cyno TREM2
Description: as §1

[3] = target: T2, human soluble TREM2 (sTREM2); assay: MSD assay: sTREM2 captured from healthy human CSF, sulfo-tagged antibody titrated
Description: (§2) The affinity of anti-TREM2 antibodies to human TREM2 and cynomolgus TREM2 were measured by Biacore (described in Example 1). The potency of anti-TREM2 antibodies were measured in healthy human volunteer CSF samples (Innovative Research) and healthy cynomolgus monkey CSF samples (Worldwide Primates), by MSD assay. The potency of each antibody was determined by its EC50. Briefly, MSD GOLD 96-well small spot streptavidin plates (MSD, Cat. No. L45SA) coated with capture antibody (biotinylated goat anti-human TREM2, R&D Systems, Cat. No. BAF1828) was incubated with biofluid samples diluted 1:3 in Assay Buffer (25% (v/v) MSD Blocker A (MSD, Cat. No. R93BA-A), 75% (v/v) TBST) for one hour at room temperature. After rinsing the wells with TBST, sulfo-tagged anti-TREM2 antibody was added in a serial dilution (4×dilution over 11 points) to the wells of the plate and incubated for one hour at room temperature. The wells were washed with TBST, and MSD Read Buffer (MSD, Cat. No. R92TC-3) was added to the wells. Signal from the samples were measured using an MSD Meso Sector 5600 device. EC50 values for each antibody was determined by four-parameter variable slope non-linear regression. The variable regions of reference antibody #1 are represented by SEQ ID NOS:344 and 345. The variable regions of reference antibody #2 are represented by SEQ ID NOS:346 and 347. The variable regions of reference antibody #3 are represented by SEQ ID NOS:348 and 349.

[4] = target: T8, cynomolgus soluble TREM2 (sTREM2) (cynomolgus); assay: MSD assay: sTREM2 captured from healthy cynomolgus CSF, sulfo-tagged antibody titrated
T8 construct: also called sTREM2 in Cyno CSF
Description: as §2

[5] = target: T1, His-tagged human TREM2 ECD; assay: SPR (Biacore); remark: listed apart in the source
Description: Surface plasmon resonance (Biacore™ 8K instrument) was used to measure anti-TREM2 antibody affinities for human and cynomolgus TREM2 ECD. Anti-TREM2 antibodies were captured using Human Fab Capture Kit (GE Healthcare Life Sciences, Catalog No. 28958325) on a Biacore Series S CM5 sensor chip (GE Healthcare Life Sciences, Catalog No. 29149604). Serial 3-fold dilutions of recombinant human or cynomolgus TREM2 were injected at a flow rate of 30 μL/min. Antibody binding was monitored for 300 seconds, followed by monitoring of antibody dissociation for 600+seconds in HBS-EP+ running buffer (GE Healthcare Life Sciences, Catalog No. BR100669). The binding response was corrected by subtracting the RU value from a blank flow cell. A 1:1 Languir model of simultaneous fitting of kₒₙ and koff was used for kinetics analysis.
(§3) Sequence optimization was conducted by searching within CDR sequences for residues that are susceptible to chemical modification (e.g., asparagine deamidation motifs (NG), aspartic acid isomerization motifs (DS), and potential oxidation residues (tryptophan (W) and methionine (M)) and making amino acid substitutions with conservative and germline residues to remove such sequence liabilities. Humanized and sequence-optimized variants of anti-TREM2 antibodies were then analyzed for binding kinetics using Biacore and dose-titrated cell binding to HEK293-H6 cells (see, Example 1 for representative protocols).

[6] = target: T3, human TREM2 on the cell surface; assay: flow cytometry, dose-titrated binding to HEK293-H6 cells
Description: After incubation, the cells were centrifuged and washed in FACS buffer (PBS+0.5% BSA) twice. Mixed cells were resuspended in FACS buffer with human Trustain FcX solution (Biolegend, Catalog No. 422302) at a density of 10⁶/mL per cell line. The mixed cell lines were seeded at 200,000 cells per well in a 96-well round-bottom plate and incubated for 20 minutes at room temperature. After incubation, the cells were centrifuged and incubated with anti-TREM2 antibodies of about 0-200 nM dose titration for 45 minutes on ice. After incubation, the cells were centrifuged and washed with FACS buffer three times. […] After incubation, the cells were washed with FACS buffer three times, resuspended in 100 μL of FACS buffer, and analyzed by flow cytometry (BD FACSCanto II, San Jose, Calif.), for which 30,000 events were obtained for each sample. Mean fluorescence intensity per cells were calculated by FlowJo software and used for generating dose response binding curve.
as §3

[7] = target: T3, human TREM2 on the cell surface; assay: cell-based or functional assay
[8] = target: T3, human TREM2 on the cell surface; assay: cell binding, human macrophages, dose titration
[9] = target: T4, human TREM2 full length stalk region …; assay: ELISA on biotinylated peptide captured by streptavidin; A450 normalised to isotype control
In short: (§4)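 Sandwich ELISA: biotinylated TREM2 stalk peptides captured on streptavidin-coated plates, antibodies added for 1 h in 1% BSA/PBS, binding detected with anti-human kappa-HRP and TMB at A450. Values expressed as fold over isotype-control background.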

[10] = target: T5, human TREM2 truncated stalk peptide (aa …); assay: as above
In short: as §4

[11] = target: T6, mouse TREM2 full length stalk region …; assay: as above
In short: as §4

[12] = target: T1, His-tagged human TREM2 ECD; assay: SPR (Biacore), antibody captured via anti-human Fab, recombinant TREM2 ECD injected, 1:1 fit
In short: (§5)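 Antibodies captured on a CM5 chip via anti-human Fab, then 3-fold serial dilutions of recombinant human or cynomolgus TREM2 ECD injected at 30 μL/min in HBS-EP+. Association 300 s, dissociation 600+ s, blank-cell subtracted; kon and koff from simultaneous 1:1 Langmuir fit.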

[13] = target: T7, recombinant cynomolgus TREM2 ECD; assay: as above
In short: as §5

Binder	Kd [1] [nM]	Kd [2] [nM]	EC50 [3] [nM]	EC50 [4] [nM]	Kd [5] [nM]	EC50 [6] [nM]	Survival EC50 (nM), plate coated mAb, human macrophages [7] [nM]	pSyk activation (human macrophages) EC50 (nM) [7] [nM]	EC50 [8] [nM]	fold over background (A450) [9] [fold]	fold over background (A450) [10] [fold]	fold over background (A450) [11] [fold]	Kd [12] [nM]	Kd [13] [nM]
B1	8.7	9.2	7.25	33.7										
B2	1.4	1.5	0.29	0.28	4.8	0.44								
B3	3.3	2.8	0.75	0.72	10	0.68								
B4					0.1	0.26	44.7	7	0.3	1.2	1.2	1	0.068	5.7
B5	0.08	9.4	0.54	16.9	0.15	0.19								
B6	0.63	9.3	1	49.4	0.44	0.37								
B7	5.9	14	32.6	81.6										
B8	4.3	9.2	7.4	6.5										
